Earlier results in paper PMC4138051.
Where two headings read alike, the source gives them in different places.

Experiments:
[1] = target: MLL MBM1 6-13 (Homo sapiens) (UniProt Q03164)
MLL 1-160 (Homo sapiens) [2] = target: MLL 1-160 (Homo sapiens) (UniProt Q03164)
MLL 1-160 (Homo sapiens) [3] = target: MLL 1-160 (Homo sapiens) (UniProt Q03164); remark: listed apart in the source
[4] = target: MLL MBM2 24-40 (Homo sapiens) (UniProt Q03164)

menin (from UniProt O00255)
Kd [1]: 56 nM | Kd (MLL 1-160 (Homo sapiens) [2]): 1500 nM | Kd (MLL 1-160 (Homo sapiens) [3]): 10 nM | Kd [4]: 1000 nM
